Values of other authors, collected in paper PMC8144458.

Experiments:
Test in all cases: NMR
Conditions in all cases: HdeA without client protein
Asp51 = Asp51 (UniProt position 72, EDAVLDVQGIA)
Asp47 = Asp47 (UniProt position 68, KDKPEDAVLDV)
Glu46 = Glu46 (UniProt position 67, NKDKPEDAVLD)

Question: Which pKa (Asp51) does the source give for “Acid stress chaperone HdeA (Escherichia coli)” here?
Answer: The pKa was 3.83.

Question: And the pKa (Asp47)?
Answer: The pKa was 4.14.

Question: And the pKa (Glu46)?
Answer: The pKa was 4.07.
